The values that follow come from patent publication US20160024176A1.

In the experiment the target is V158 high affinity variant of CD16a (FcγRIIIa) (UniProt P08637). Description: HTRF competition with IgG-d2 on HEK293 cells expressing terbium-labelled FcγRIIIa V158. On the technique in general: In TR-FRET formats the signal depends on donor and acceptor labels being close together.

As to human IgG1 monoclonal antibody, the EC50 was determined as 220 nM.

One may read the EC50 as the concentration that produces a half-maximal response. A lower EC50 goes with higher potency in that assay.
